# Publication PMC12397995 (Blood, 2025)
# T1: Factor VIIa (UniProt P08709 61-212; P08709 213-466, gamma-carboxyglutamate (γ35 printed; GLA domain))
# T1 sequence (looked up) 1: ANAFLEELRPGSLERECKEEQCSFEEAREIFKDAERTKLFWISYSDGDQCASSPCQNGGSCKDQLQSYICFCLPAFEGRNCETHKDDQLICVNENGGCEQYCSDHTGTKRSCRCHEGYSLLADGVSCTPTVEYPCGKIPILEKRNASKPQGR
# T1 sequence (looked up) 2: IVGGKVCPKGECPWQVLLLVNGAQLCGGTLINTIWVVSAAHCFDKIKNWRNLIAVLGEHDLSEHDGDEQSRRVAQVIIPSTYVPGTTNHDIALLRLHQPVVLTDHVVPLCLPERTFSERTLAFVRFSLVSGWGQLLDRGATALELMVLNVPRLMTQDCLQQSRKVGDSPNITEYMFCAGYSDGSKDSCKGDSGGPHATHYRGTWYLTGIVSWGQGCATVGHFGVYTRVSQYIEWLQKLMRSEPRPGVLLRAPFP
# What was measured:
# [1] = biological target: Recombinant, membrane-anchored tissue factor (TF residues 3–244) fused to E. coli maltose-binding protein (UniProt P13726); assay: cryo-EM structure
# Factor VIIa = biological target: T1, Factor VIIa; assay: cryo-EM structure
binder,measurement,setting,value
"Fab fragment of the non-inhibitory anti-TF antibody 10H10 (Fab, V domains shown) VH: QVHLQQSGAELMKPGASVKISCKASGYTFITYWIEWVKQRPGHGLEWIGDILPGSGSTNYNENFKGKATFTADSSSNTAYMQLSSLTSEDSAVYYCARSGYYGNSGFAYWGQGTLVTVSA VL: DIVMTQSPSSLTVTAGEKVTMSCKSSQSLLSSGNQKNYLTWYQQIPGQPPKLLIYWASTRESGVPDRFTGSGSGTDFTLTINSVQAEDLAVYYCQNDYTYPLTFGAGTKLELK",binding result,[1],binds
"Recombinant, membrane-anchored tissue factor (TF residues 3–244) fused to E. coli maltose-binding protein (receptor, UniProt P13726 35-276, looked up) TTNTVAAYNLTWKSTNFKTILEWEPKPVNQVYTVQISTKSGDWKSKCFYTTDTECDLTDEIVKDVKQTYLARVFSYPAGNVESTGSAGEPLYENSPEFTPYLETNLGQPTIQSFEQVGTKVNVTVEDERTLVRRNNTFLSLRDVFGKDLIYTLYYWKSSSSGKKTAKTNTNEFLIDVDKGENYCFSVQAVIPSRTVNRKSTDSPVECMGQEKGEFREIFYIIGAVVFVVIILVIILAISLHK",binding result,Factor VIIa,binds
